Experimental data published in patent US20200165323A1 (PANASONIC INTELLECTUAL PROPERTY MANAGEMENT, published 2020).

Biological target: recombinant nucleoprotein (NP) protein derived from influenza virus H1N1 to which a Flag tag was fus (influenza virus H1N1)
Sequence (P03466 whole entry): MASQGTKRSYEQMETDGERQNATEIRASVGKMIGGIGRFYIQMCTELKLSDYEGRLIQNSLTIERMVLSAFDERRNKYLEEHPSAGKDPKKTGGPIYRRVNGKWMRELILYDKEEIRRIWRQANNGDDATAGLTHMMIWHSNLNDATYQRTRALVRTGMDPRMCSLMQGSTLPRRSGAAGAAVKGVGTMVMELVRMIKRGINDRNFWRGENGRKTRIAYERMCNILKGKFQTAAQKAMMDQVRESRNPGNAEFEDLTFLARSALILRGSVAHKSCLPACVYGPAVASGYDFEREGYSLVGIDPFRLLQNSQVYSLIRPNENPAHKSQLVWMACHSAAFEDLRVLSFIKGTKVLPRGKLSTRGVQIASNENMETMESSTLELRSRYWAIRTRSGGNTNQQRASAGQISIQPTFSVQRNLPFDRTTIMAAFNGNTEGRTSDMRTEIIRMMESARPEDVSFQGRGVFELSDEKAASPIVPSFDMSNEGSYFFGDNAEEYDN

B1: VHH antibody consisting of the amino acid sequence represented by SEQ ID NO: 8 (VHH)
VHH: QLQLVESGGGLVQAGGSLRLSCAASGSAFSLYAMGWHRQAPGKQRELVAYITNGDITNYADSVQGRVIISRDNAKNTVYLHMNSLKPEDTAVYYCYAVGGRTFWGQGTQVTVSS
Kd: 1.09 nM
